Experimental data reported in PMC7486241 (Cell Host & Microbe, 2020).
Positions count from the first letter of the chain named. Like-named read-outs stand apart in the source and are kept apart here.

Assays:
[1] = molecular target: T1, recombinant HA of H1N1 A/California/04/2009, biotinylated (Influenza A virus A/California/04/2009 …, UniProt C3W5S1, strain, biotin)
[2] = molecular target: T2, recombinant HA of H5N1 A/Indonesia/05/2005, biotinylated (Influenza A virus A/Indonesia/05/2005 …, UniProt C5MRF2, strain, biotin)
[3] = molecular target: H9N2 A/Hongkong/1073/1999 hemagglutinin (HA), biotinylated recombinant (influenza A virus A/Hongkong/1073/1999 …, biotin); test: BLI; settings: both partners purified
[4] = molecular target: T1, recombinant HA of H1N1 …; test: Meso Scale Discovery (MSD) electrochemiluminescence binding assay; settings: both partners purified
[5] = molecular target: T2, recombinant HA of H5N1 …; test: as above; settings: both partners purified
[6] = molecular target: recombinant HA of H1N1 A/New Caledonia/20/1999, biotinylated (Influenza A virus A/New …, UniProt Q6WG00, strain, biotin); test: as above; settings: both partners purified
[7] = molecular target: recombinant HA of H7N9 A/Shanghai/02/2013, biotinylated (Influenza A virus A/Shanghai/02/2013 …, UniProt R4NN21, strain, biotin); test: as above; settings: both partners purified
[8] = molecular target: recombinant HA of H3N2 A/Texas/50/2012, biotinylated (Influenza A virus A/Texas/50/2012 (H3N2), UniProt R4L1D1, strain, biotin); test: as above; settings: both partners purified
[9] = molecular target: T3, recombinant HA of H3N2 A/Hongkong/1/1968, biotinylated (Influenza A virus A/Hong Kong/1/1968 …, UniProt Q91MA7, strain, biotin); test: as above; settings: both partners purified
T3 construct: source: plasmid pCMV/R-HA-AviHis, Andrews et al., 2017

[10] = molecular target: recombinant HA of H9N2 A/Hongkong/1073/1999, biotinylated (Influenza A virus A/Hong Kong/1073/1999 …, UniProt Q9ICY5, strain, biotin); test: as above; settings: both partners purified
[11] = molecular target: T4, HA ectodomain of A/California/04/2009 (H1N1), cleaved mature HA (HA1/HA2) (influenza A virus A/California/04/2009 …); test: crystal structure; settings: both partners purified
T4 construct: copies: 3 + 3

[12] = molecular target: H7N9 A/Shanghai/02/2013 hemagglutinin (HA), biotinylated recombinant (Influenza A virus A/Shanghai/02/2013 …, UniProt R4NN21, biotin); test: BLI; settings: both partners purified
[13] = molecular target: H3N2 A/Texas/50/2012 hemagglutinin (HA), biotinylated recombinant (influenza A virus A/Texas/50/2012 (H3N2), biotin); test: BLI; settings: both partners purified

B1: 54-1B01 (antibody, V domains shown)
VH: QVQLQQSGPGVVKPSQSLALTCAISGDSVSNDRVAWIWIRQSPSRGLEWLGRTYYRSKWYNDYANSVRGRMTINPDTSKNQFSLNLDSVTPDDTAVYYCARGMIFGRPLTGWYFDFWGRGTLVTVSS
VL: EIVLTQSPGTLSLSAGERVTLFCRASQHVSSGYLAWYQQKPGQAPRLLIYGATNRATGIPDRFSGSGSGTDFALTISRLEPEDFAVYYCQQFDSSSMYTFGQGTKLEIK
B1: binds [1]; binds [2].

B2: 54-1G07 Fab (Fab, V domains shown)
VH: QVQLQQSGPGLVKPSQTLALTCGISGDTVSNNRVAWNWIRQSPSRGLEWLGRTYYRSKWYSDYSKSVTGRMTINPDTSKNQFSLHLDSVTPADTAVYYCARGMIFGWPLTGWYFDLWGRGTLVTVSS
VL: B1 VL with A15P, F22L, Q27H
B2: no binding (tested: 3200 nM (highest Fab concentration)) [3].

B3: 54-1G07 (clonotype A), IgG (antibody, V domains shown)
VH: B2 VH
VL: B1 VL with A15P, F22L, Q27H
notes: IgG format
B3: binds [4]; binds [5].

B4: early intermediate of clonotype A, IgG (antibody, V domains shown)
VH: QVQLQQSGPGLVKPSQTLSLTCAISGDSVSSNSAAWNWIRQSPSRGLEWLGRTYYRSKWYNDYAVSVKSRITINPDTSKNQFSLQLNSVTPEDTAVYYCARGMIFNWPLGGWSFDLWGRGTLVTVSS
VL: B1 VL with A15P, V19A, F22S, H28S, G32S, T53S, N54S, A73T
B4: binds [4].

B5: 54-1G05 (clonotype B), IgG (antibody, V domains shown)
VH: QVQLQQSGPRLVKPSQTLSLTCAISGDSVSSSSAVWTWIRQSPSRGLEWLGRTYYRSKWYDDYAVSVQGRITINPDTSKNQISLQLNSVTPDDTAVYYCARSSINIFGVFVMAMDVWGQGTAVTVSS
VL: EIVLTQSPGTLSLSPGERVTLSCRASQTVYNSYLAWYQQKPGQAPTLLIYGTSTRATGVPDRFSGSGSGTVFTLTISRLEPEDFAVYFCQQYSTSPRALTFGGGTKVEIK
notes: source: Expi293 cells, transfected, purified from the supernatant (Protein A)
B5: binds [4]; binds [6]; binds [5]. B5: binds [7]; binds [8]; binds [9]. B5: binds [10].

B6: 54-4H03 Fab (Fab, V domains shown)
VH: QVQLQQSGPGLVKPSQTLSLTCAISGDSVSSNSVAWNWIRQSPSRGLEWLGRTYFRSKWYTDYAESLKSRMTINPDTSKNEFSLHLKSVTSDDTAVYYCVRGIIFNWPLGGWSFDLWGRGTLVSVSS
VL: EIVLTQSPGTLSLSPGDSATLSCRASQSVASSYLAWYQQKPGQSPRLLIYATINRAADIPDRFSGSGSGTDFALTISRLEPEDFAVYYCQQFDSSSMYTFGQGTKLEIT
B6: binds [11].

B7: 54-4H03 (clonotype A), IgG (antibody, V domains shown)
VH: B6 VH
VL: B6 VL
B7: binds [4]; binds [7].

B8: 54-4H03 VH G100cT/S100fY, IgG (54-4H03 light chain) (antibody, V domains shown)
VH: B6 VH with G110T, S113Y
VL: B6 VL
B8: no binding [5]; no binding [7].

B9: 58-6E11 Fab (Fab, V domains shown)
VH: QVQLPQSGPGLVKPSQTLSLTCAISGDSVSSNSAVWTWIRQSPSRGLEWLGRTYYRSKWYNDYAVSVESRITINPDTSKNQFSLQLKSVTPEDTAVYFCARSGITIFGVSVMAMDIWGQGTTVIVSS
VL: EIVLTQSPGTLSLSPGERATLSCRASQNVAVSYLAWYQQKPGQPPRLLIYGASSRATGIPGRFTGSGSGTDFTLTINRLEPEDSAVYYCQQYATSPRALTFGGGTKVEIK
B9: no binding (tested: 3200 nM (highest Fab concentration)) [12]; no binding (tested: 3200 nM (highest Fab concentration)) [13]; no binding (tested: 3200 nM (highest Fab concentration)) [3].

B10: ClonB UCA Fab (Fab, V domains shown)
VH: B9 VH with P5Q, E68K, F98Y, S110I, V111I, I124T
VL: B9 VL with G61D, A93G, T94S
notes: also called early intermediate of clonotype B; EI (clonotype B)
B10: no binding (tested: 3200 nM (highest Fab concentration)) [13]; no binding (tested: 3200 nM (highest Fab concentration)) [3].

B11: 54-1G05 VL early intermediate, IgG (54-1G05 VH paired with VL from the early intermediate of clonotype B) (antibody, V domains shown)
VH: B5 VH
VL: B9 VL with G61D, A93G, T94S
notes: IgG format
B11: binds [7].

B12: early intermediate of clonotype B, IgG (antibody, V domains shown)
VH: B9 VH with P5Q, E68K, F98Y, S110I, V111I, I124T
VL: B9 VL with G61D, A93G, T94S
B12: binds [4].
